Assay [1] concerns tracheal smooth muscle (TSM) of mouse tracheal rings. Briefly: ISO-induced relaxation of CCh-contracted tracheal rings. The assay is classed as cell-based. The settings on record: normalized to 200 μM papaverine, PBS 46.29±2.85, n=6. Here is the method: Experimental animals were sacrificed by CO2 asphyxiation. Tracheas were surgically excised and cleaned of adherent connective tissue. Each trachea was sectioned into rings 3-4 mm in length and cultured in DMEM containing 1.0 M HEPES, 1.0 M NaOH, 5% of heat-inactivated FBS (Hy-Clone, Logan, Utah), 0.2M glutamine, 1.0 M CaCl2, 2.5 μg/ml fungizone, 5 μg/mL insulin, 100 U/mL penicillin and 100 μg/mL streptomycin) (DMEM-5%) for 24 hours. For in vitro experiments, the tracheal rings were cultured in DMEM in the absence and presence of either 10 or 100 nM recombinant FIZZ1 (Leinco Technologies, USA) for 24 hours.
Trachea were supported longitudinally by a plexiglas rod with a stainless steel pin into the base of a double-jacketed, glass organ bath filled with 10 mL of Krebs-Henseleit (K-H) solution (37° C.) of the following composition: 118 mM NaCl; 4.7 mM KCl; 1.2 mM KH2PO4; 11.1 mM Dextrose; 1.2 mM MgSO4; 2.8 mM CaCl2; and 25 mM NaHCO3. The solution was maintained at a pH of 7.40-7.45 and continuously gassed with a mixture of 5% CO2 and […] for the duration of each experiment. […] Initial tensions of TSM were set at approximately 0.5 g and maintained for 1 hour. Agonists were given after a steady state of tension had been reached.
[CCh]-response curves at the doses ranging from 3×10^−8 to 10^−5 M were completed in tracheal rings in absence and presence of either FIZZ1 or LPS (0.1 ng/mL). Concentrations of agonist were increased only when force responses to the previous concentration had stabilized. To examine TSM relaxant responses to isoprenaline (ISO), tracheal rings were first contracted by an addition of 1.0 μM CCh (Sigma, USA). Once the contraction had stabilized, ISO (Sigma, USA) was introduced into each bath at increasing concentrations (3×10^−8-10^−5 M). […]
(§1) At the end of each force measurement experiment, tracheas were blotted on a gauze pad and weighted. Results were calculated as milligram of tension per milligram of TSM weight (mg/mg) and expressed as an individual percentage (%) of 10 μM CCh- or 200 μM papaverine-induced tension response in PBS-treated trachea. […]

The test system of assay [2] is airway epithelium of cultured trachea. As to the kind of experiment: Histological examination of tracheal rings and airway epithelium. In kind it is cell-based, mouse. The settings on record: cultured overnight with FIZZ1 100 nM or LPS 0.1 ng/mL. Here is the method:
(§2) Histological examination of the structure of the airway and the status of the airway epithelial layer was performed in whole/sectional fresh trachea and as well as trachea cultured overnight with and without 100 nM FIZZ1. To understand the role of airway epithelium in regulating contractility of TSM, we measured the contractile response of tracheal rings after the epithelium was mechanically removed. Briefly, airway epithelial cells were removed by gently rubbing the intraluminal surface with polyethylene tubing (Becton Dickinson & Company, MD USA) connected to a Precision Glide needle (30G1/2) followed by perfusion with 1.0 ml air bubbles and then 1.0 ml K-H solution (re). All of the experimental tracheas were stained with H & E solution (CAT hematoxylin, Edgar Degas Eosin Working Solution, Biocare Medical, Concord, Calif.) and photographed under a light microscope at ×4.0 and ×20 magnification. Tracheal morphometric analysis was performed using a computer-based image analysis system consisting of a Nikon Eclipse E800 microscope (Melville, N.Y. USA) with a SPOT RT Slider camera (Diagnostic Instruments, Inc., Sterling Heights, Mich. USA).

For assay [3], the system named is mouse tracheal epithelium cells (MTEC). Briefly: MTEC apoptosis, Cell Death Detection ELISAplus. In kind it is cell-based. Here is the method: MTEC culture was performed by following the protocol of You et al. (“Growth and differentiation of mouse tracheal epithelial cells: selection of a proliferative population,” Am J Physiol Lung Cell Mol Physiol, 2002, 283:L 1315-1321) with minor modification. Briefly, tracheas were incubated in 1.5 mg/mL pronase (Roche Molecular Biochemicals) for 18 h at 4° C. Cells were treated with 0.5 mg/mL crude pancreatic DNase I (Sigma-Aldrich) on ice for 5 min. After incubation in tissue culture plates for 3-4 h in 5% CO2 at 37° C., nonadherent cells were incubated in a plate coated with type I rat tail collagen (BD Biosciences) in modified BEBM (Lonza, Md. USA) containing 10 μg/ml insulin, 5 μg/ml transferrin, 25 ng/ml epidermal growth factor, 5 μg/ml epinephrine and 30 μg/ml bovine pituitary extract, 0.5 nM Hydrocortisone, 25 ng/ml hEGF, 15 nM Triiodothyronine, 0.25 μg/ml Gentamicin/amphotericin-B and 0.01 μM retinoic acid in 5% CO2 at 37° C. […]
Apoptotic MTEC death was examined using Cell Death Detection ELISAplus (Roche) according to the manufacturer's instructions and calculated as an index of a fold change over a control. […] Quantitation of histone-associated-DNA-fragments in supernatants of MTEC cultures (5×10^4/mL) treated with PBS, 0.1 ng/mL LPS or 100 nM rFIZZ1 was performed at an absorbance of 405-490 nm.

The test system of assay [4] is TSM of epithelium-denuded trachea. Briefly: CCh-evoked force in trachea with mechanically removed epithelium EP(−). In kind it is cell-based, mouse. Here is the method: as §2, with “Tracheal morphometric analysis was performed using a computer-based image analysis system consisting of a Nikon Eclipse E800 microscope (Melville, N.Y. USA) with a SPOT RT Slider camera (Diagnostic Instruments, Inc., Sterling Heights, Mich. USA).” left out
as §1

B1: rFIZZ1: recombinant FIZZ1 (Leinco Technologies), mouse FIZZ1 protein, resistin-like molecule-α (protein, listed as Mus musculus)
chain: MKTTTCSLLICISLLQLMVPVNTDETIEIIVENKVKELLANIPANYPSTVTKTLSCTSVKTMNRWASCPAGMTATGCACGFACGSWEIQSGDTCNCLCLLV
modifications: (1)..(101) Murine FIZZ1 polypeptide
With B1, the “maximal relaxing force (%), ISO-induced” value in assay [1] (10 nM rFIZZ1 pretreatment) worked out at 46.52±2.80%; in assay [1] (100 nM rFIZZ1 pretreatment) it was 43.38±0.75%. Moreover, in assay [2], the “smooth muscle layers, histology” value was “clear and histologically intact”. In addition, in assay [2] (vs PBS), the “epithelial layer of tracheal rings, histology” value is “thinner and some of airway epithelium was denuded”. For the same molecule, the “MTEC apoptosis (apoptosis index)” value in assay [3] (100 nM rFIZZ1, all time points, compared to LPS treatment, N=3) was “significant increased”. Also, the “start of increase in cell death, time of incubation” value in assay [3] (FIZZ1-treated MTEC) amounted to 3 h. In assay [4] (EP(−)/FIZZ1 100 nM, Mean ± SE, N=8), the “EP(−) TSM sensitivity to CCh, LogEC50” value was −0.91 ± 0.08 μM. Moreover, the “maximal tensions (%), CCh stimulation, EP(−) trachea” value in assay [4] (denuded epithelium EP(−) with 100 nM FIZZ1, EP(+) 100±6.22) was determined as 141.43±6.65%.

The record behind these values is patent US20090274696A1, “METHODS FOR TREATING INFLAMMATION” (WYETH, priority 2008, published 2009).
